# Assay results: the supplement of paper PMC9732359
# ± gives the uncertainty stated by the source.
# Assay: protein stability index of a GFP-peptide fusion (yeast GPS) (PSI 1-4); higher = more stable; sorted into four equal gates, so the index is relative within each strain
# How it was run: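 Sequencing reads from sorted gates were used to score each peptide. The library consisted of tiled 17-residue yeast protein peptides fused downstream of GFP on a Cherry-expressing plasmid, pooled and carried in yeast. Mid-log cultures in leucine-free medium were split into four equal gates by GFP/Cherry ratio, and each gate's plasmids were PCR-amplified and Illumina-sequenced. The protein stability index adds up, over all gates, the read frequency multiplied by the gate number.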
Sequence,protein stability index (doa10∆),protein stability index (pdr5∆),protein stability index (san1∆),protein stability index (ubr1∆)
TSSTHERKSKTYVITKN [RET1],2.44 ± 0.067,2.66 ± 0.08,2.3 ± 0.064,2.84 ± 0.076
SQASSDLGETFRGIIRS [CSL4],3.17 ± 0.14,2.96 ± 0.081,3.3 ± 0.096,3.24 ± 0.073
VQDALLTNQLYKNHELL [SNF2],3.19 ± 0.068,3.1 ± 0.072,3.08 ± 0.044,3.14 ± 0.061
EVLQGLLQGGAKVVVTT [FAS2],3.22 ± 0.092,2.91 ± 0.076,2.29 ± 0.076,1.61 ± 0.088
ISSLGYRSHIFATNEER [SWI3],2.3 ± 0.072,1.96 ± 0.056,2.34 ± 0.055,2.33 ± 0.045
AIGCIERSDLLPYLSDT [YJR042W/NUP85],2.96 ± 0.095,2.96 ± 0.098,2.8 ± 0.075,3.06 ± 0.13
AETLAEELINAAKGSST [RPS5],2.15 ± 0.083,2.51 ± 0.095,2.32 ± 0.1,2.09 ± 0.088
SPAALKQLASLKKSEEI [YMR153W/NUP53],2.2 ± 0.23,2.85 ± 0.13,2.65 ± 0.17,3.37 ± 0.15
SLDIRHDFIKGLIMLNL [NUT1],2.18 ± 0.064,1.56 ± 0.068,1.31 ± 0.13,1.72 ± 0.057
LLTVTPGPRLLYENIAS [RPN10],1.86 ± 0.036,1.92 ± 0.054,1.95 ± 0.086,1.82 ± 0.035
ITLIDSASLHLNYGVYL [RET1],2.4 ± 0.076,2.27 ± 0.081,2.83 ± 0.097,2.4 ± 0.063
IDDANVTRKQEDARRNP [RPC37],1.45 ± 0.15,1.8 ± 0.081,2.06 ± 0.13,2.01 ± 0.1
NNFRESDIIILKGEIED [SIR4],3.05 ± 0.18,2.12 ± 0.091,2.32 ± 0.13,2.93 ± 0.13
NTLRKCYPQFAERDSQG [UBP6],2.92 ± 0.17,2.65 ± 0.15,2.79 ± 0.15,2.78 ± 0.12
YQCAMGKQAIGAIAYNQ [RET1],2.55 ± 0.053,2.76 ± 0.06,2.78 ± 0.047,2.65 ± 0.049
GGLRPFGVSFIYAGYDD [PRE9],2.44 ± 0.08,2.52 ± 0.075,2.26 ± 0.11,2.27 ± 0.083
EDPNSAAFDEVEYKLTF [DIS3],1.18 ± 0.12,1.6 ± 0.29,1.17 ± 0.25,–
LLVDQKQLNSLRRSGQI [SMD1],2.57 ± 0.047,2.79 ± 0.054,2.96 ± 0.061,2.72 ± 0.051
EDRNKIHQYLFQEGVVV [RPS10A],2.37 ± 0.064,2.37 ± 0.06,1.66 ± 0.12,2.61 ± 0.058
EEATTEEAGEEEAKEEV [RPS0A],2.69 ± 0.11,2.78 ± 0.17,–,–
CIPLVGISVPFHSTYLM [FAS1],1.43 ± 0.041,1.3 ± 0.04,1.27 ± 0.069,1.39 ± 0.027
DIPPPAIMKPYYLWTGK [RPO31],2.74 ± 0.068,2.77 ± 0.075,2.9 ± 0.074,2.79 ± 0.047
VGKFLGYVSSLVEPSKV [FAS1],1.71 ± 0.064,2.14 ± 0.072,1.69 ± 0.12,1.89 ± 0.052
PAGTSLFGNNAGNTTTG [YGL172W/NUP49],2.98 ± 0.16,3.24 ± 0.088,2.88 ± 0.11,3.24 ± 0.084
SLWRRTVYSLSQQAGLD [YDL116W/NUP84],1.9 ± 0.12,2.39 ± 0.28,1.78 ± 0.27,2.26 ± 0.08
FLYVLIPAGIYWYWWKN [QCR8],1.93 ± 0.11,1.33 ± 0.13,1.62 ± 0.21,1.35 ± 0.27
SSFVRQELAKSIRSRRP [PRE1],2.08 ± 0.12,2.21 ± 0.074,1.78 ± 0.23,2.12 ± 0.065

Sequence,protein stability index (doa10∆),protein stability index (pdr5∆),protein stability index (san1∆),protein stability index (ubr1∆)
FPMKQGVLLPTRIKLLL [RPS6A],1.26 ± 0.053,1.39 ± 0.053,1.17 ± 0.094,1.29 ± 0.038
ELTLAEQQVKEAEMAYV [SMC4],3.02 ± 0.1,3.1 ± 0.076,2.81 ± 0.078,2.81 ± 0.074
SVSLVDEFPSELSDSDR [SIR4],2.68 ± 0.071,2.57 ± 0.058,2.64 ± 0.067,2.16 ± 0.057
IMECCQKNDTAAFKDIA [RRP40],3.08 ± 0.16,3.54 ± 0.17,2.95 ± 0.084,3.54 ± 0.077
KGEMKGSAITGPVGKEC [RPL23A],3.19 ± 0.065,2.98 ± 0.065,3 ± 0.051,3 ± 0.044
IEILVKDNECSSFEENN [RRI2],2.86 ± 0.13,3.02 ± 0.13,2.89 ± 0.12,3.33 ± 0.12
QDVAAKCKEVGITAVHV [RPS14B],2.44 ± 0.059,2.7 ± 0.068,2.8 ± 0.065,2.18 ± 0.037
LDKHERKWMEEKADYER [YIL149C/MLP2],2.8 ± 0.094,3.35 ± 0.15,2.66 ± 0.13,3.25 ± 0.12
ILSINAIDYEPEYEKAM [SMC1],3.29 ± 0.076,3.1 ± 0.068,3.05 ± 0.049,3.13 ± 0.043
VGVNKDSYLILDTLPSE [RPT5],3.15 ± 0.069,3.18 ± 0.08,3.19 ± 0.078,3.14 ± 0.032
DIKAAVDDSMELCGQIR [ITC1],2.65 ± 0.092,2.82 ± 0.12,2.21 ± 0.17,2.9 ± 0.14
IAEVGNKRWKVDIGGKQ [RRP4],3.62 ± 0.19,3.32 ± 0.14,3.22 ± 0.11,3.36 ± 0.061
VRTNRFDIIEESFKGLQ [ECM29],2.6 ± 0.099,2.47 ± 0.13,2.18 ± 0.12,2.26 ± 0.1
KRLTEDERIEKELNTER [CDC53],–,2.89 ± 0.16,2.33 ± 0.1,2.31 ± 0.12
KLVLAARIIAAIPNPED [RPS0A],1.71 ± 0.074,2.11 ± 0.11,2.31 ± 0.099,2.5 ± 0.14
EIEVDEMEVDAEGEEVE [RPN1],3.52 ± 0.084,3.68 ± 0.12,3.52 ± 0.082,3.49 ± 0.067
YELEFDTPTSGKHNLTI [BRR2],3.1 ± 0.068,3.04 ± 0.076,3.18 ± 0.061,3.23 ± 0.065
QITLTFISELCSIEPIA [YML103C/NUP188],1.27 ± 0.035,1.46 ± 0.052,1.48 ± 0.085,1.82 ± 0.055
TANATAELNLPTVDEQR [SNF11],3.04 ± 0.035,3.14 ± 0.032,2.99 ± 0.043,3.147 ± 0.026
HIQGFPTLGERLDNLQD [DSN1],3.34 ± 0.11,3.39 ± 0.11,3.16 ± 0.046,3.05 ± 0.073
HGVSFKKRAPRAVKEIK [RPL31A],–,2.73 ± 0.14,2.97 ± 0.17,3.2 ± 0.11
DVLHPNRANVSKDELRE [RPS24A],3.35 ± 0.086,3.29 ± 0.11,3.19 ± 0.092,3.1 ± 0.086
SIVLLLLSQFGIKVLPE [YML103C/NUP188],1.8 ± 0.096,1.28 ± 0.085,1.18 ± 0.13,1.42 ± 0.033
DLESSSPELKADLRPLQ [RPS7B],2.89 ± 0.29,2.97 ± 0.21,–,3.27 ± 0.17
HVEKERASTELSQSRIK [YIL149C/MLP2],3.01 ± 0.089,2.93 ± 0.066,3.12 ± 0.095,3.1 ± 0.074
NDFKKIGRENENENEDD [POP5],3.22 ± 0.11,3.28 ± 0.097,3.16 ± 0.067,2.79 ± 0.11
NTVVGISGDISDMQHIE [PRE4],2.94 ± 0.12,3.29 ± 0.12,3.15 ± 0.17,2.82 ± 0.12
